The record followed here is patent US20240101687A1.

The labels stand for the following.
B1: Hu3A9-1564 (bispecific antibody, part only; not given: Hu3A9 heavy and light chains, part only)
heavy, part: GGGGSGGGGSGGGGSQSVLTQPPSASGTPGQRVTISCTGSSSNIGSNDVSWYQQLPGTAPKLLIYANSNRPSGVPDRFSGSKSGTSASLAISGLRSEDEADYYCGAWDDSLNGYVFGCGTKLTVLGGGGSGGGGSGGGGSGGGGSEVQLLESGGGLVQPGGSLRLSCAASGFTFSSYDMSWVRQAPGKCLEWVSAISYDNGNTYYADSVKGRFTISRDNSKNTLYLQMNSLRAEDTAVYYCAKGVLTTLMNWFDYWGQGTLVTVSS
B2: Hu3A9-B10 (bispecific antibody, part only; not given: Hu3A9 heavy and light chains, part only)
heavy, part: B1 heavy, part with P75S, A106S, D109V, C118G, C189G
B3: Hu3A9-E09 (bispecific antibody, part only; not given: Hu3A9 heavy and light chains, part only)
heavy, part: B1 heavy, part with P75S, C118G, C189G, Y198W, D199G, N200Q, N202K
B4: Hu3A9-B01 (bispecific antibody, part only; not given: Hu3A9 heavy and light chains, part only)
heavy, part: B1 heavy, part with P75S, C118G, C189G, Y198W, N200K, G201A, N202Q, T203P
B5: Hu3A9-A02 (bispecific antibody, part only; not given: Hu3A9 heavy and light chains, part only)
heavy, part: B1 heavy, part with P75S, D109T, S110T, C118G, C189G
B6: Hu3A9-C04 (bispecific antibody, part only; not given: Hu3A9 heavy and light chains, part only)
heavy, part: GGGGSGGGGSGGGGSQSVLTQPPSASGTPGQRVTISCTGSSSNIGSNDVSWYQQLPGTAPKLLIYANSNRPSGVPDRFSGSKSGTSASLAISGLRSEDEADYYCGAWEQWLNGYVFGCGTKLTVLGGGGSGGGGSGGGGSGGGGSEVQLLESGGGLVQPGGSLRLSCAASGFTFSSYDMSWVRQAPGKLEWVSAISYDNGNTYYADSVKGRFTISRDNSKNTLYLQMNSLRAEDTAVYYCAKGVLTTLMNWFDYWGQGTLVTVSS
B7: hu3A9 × 1564_F06 (bispecific antibody, part only; not given: hu3A9 heavy and light chains, part only)
heavy, part: B1 heavy, part with A106T, D108A, D109G

Residue numbers refer to the chain shown, from its start.

The first test concerns the target human IGF1R extracellular domain, His-tagged (human) (UniProt P08069). Briefly: ELISA on ECD of IGF1R. A general note: An ELISA detects its analyte on a solid surface through an enzyme-linked reagent.
As for B1, the EC50 (in general, the midpoint of the concentration-response curve) stood at 0.144 nM.
On to B2, for which the EC50 is 0.156 nM.
B3 registered an EC50 of 0.159 nM.
Same read-out and setting: for B4 the value was 0.145 nM.
Same read-out and setting: as for B5, the figure is 0.13 nM; as for B6, 0.107 nM.

Another test addresses human IGF1R on cells (human) (UniProt P08069). Briefly: FACS on MCF-7 cells, 10 ug/mL (2nd Ab only: 2.86).
B1 had a GeoMean, Internalization at 37° C. of 7.72.
Still for that read-out and setting: for B7 the value was 19.8; for B6, 7.23.

The target is the same in another test. The test can be described thus: FACS on MCF-7 cells (2nd Ab only: 2.92).
On to B6, for which the GEOmean is 3.88.
